Source: patent US10280205B2, “Method for treating cancer with an activated T lymphocyte that selectively recognizes a cancer cell consisting of specific peptide” (immatics biotechnologies GmbH, priority 2015, dated 2019)

Molecular target: HLA-A*02:01 (Homo sapiens, UniProt P04439, D140Y/D185E/D98H/E176V/E277Q/G131W/G231S/I119V/I121R/I166T/I218V/L300P/L318F/N151K/N90K/P208A/P217A/Q86G/Q94H/R138H/R169H/T345S)
Test: MHC binding assay: UV-ligand exchange with beta2m ELISA (exchange yield)
Details: binding to HLA-A*02:01, β2m ELISA
From the text: Candidate peptides for T cell based therapies according to the present invention were further tested for their MHC binding capacity (affinity). The individual peptide-MHC complexes were produced by UV-ligand exchange, where a UV-sensitive peptide is cleaved upon UV-irradiation, and exchanged with the peptide of interest as analyzed. Only peptide candidates that can effectively bind and stabilize the peptide-receptive MHC molecules prevent dissociation of the MHC complexes. To determine the yield of the exchange reaction, an ELISA was performed based on the detection of the light chain (β2m) of stabilized MHC complexes. The assay was performed as generally described in Rodenko et al. (Rodenko et al., 2006).
96 well MAXISorp plates (NUNC) were coated over night with 2 ug/ml streptavidin in PBS at room temperature, washed 4× and blocked for 1 h at 37° C. in 2% BSA containing blocking buffer. […] Peptide-MHC monomers of the UV-exchange reaction were diluted 100 fold in blocking buffer. Samples were incubated for 1h at 37° C., washed four times, incubated with 2 ug/ml HRP conjugated anti-β2m for 1h at 37° C., washed again and detected with TMB solution that is stopped with […]. Absorption was measured at 450 nm. Candidate peptides that show a high exchange yield (preferably higher than 50%, most preferred higher than 75%) are generally preferred for a generation and production of antibodies or fragments thereof, and/or T cell receptors or fragments thereof, as they show sufficient avidity to the MHC molecules and prevent dissociation of the MHC complexes.

Row | Substance | Peptide exchange (MHC class I binding score, peptide exchange yield)
1 | 75 (GLLEVMVNL; listed as Homo sapiens) [compound 75] | “+++” (≥50 = +++)
2 | 76 (ILIDSIYKV; listed as Homo sapiens) [compound 76] | “+++” (≥50 = +++)
3 | 77 (ILVEADGAWVV; listed as Homo sapiens) [compound 77] | “++++” (≥75% = ++++)
4 | 78 (SLFSSLEPQIQPV; listed as Homo sapiens) [compound 78] | “+++” (≥50 = +++)
5 | 80 (FLYDNLVESL; listed as Homo sapiens) [compound 80] | “++” (≥20% = ++)
6 | 81 (FLFSQLQYL; listed as Homo sapiens) [compound 81] | “++” (≥20% = ++)
7 | 82 (FLSSVTYNL; listed as Homo sapiens) [compound 82] | “+++” (≥50 = +++)
8 | 83 (ILAPTVMMI; listed as Homo sapiens) [compound 83] | “+++” (≥50 = +++)
9 | 84 (VTFGEKLLGV; listed as Homo sapiens) [compound 84] | “++” (≥20% = ++)
10 | 85 (KMSELRVTL; listed as Homo sapiens) [compound 85] | “+++” (≥50 = +++)
11 | 86 (NLIGKIENV; listed as Homo sapiens) [compound 86] | “+++” (≥50 = +++)
12 | 87 (ALPEAPAPLLPHIT; listed as Homo sapiens) [compound 87] | “++” (≥20% = ++)
13 | 88 (FLLVGDLMAV; listed as Homo sapiens) [compound 88] | “+++” (≥50 = +++)
14 | 89 (YILPTETIYV; listed as Homo sapiens) [compound 89] | “++++” (≥75% = ++++)
15 | 90 (TLLQIIETV; listed as Homo sapiens) [compound 90] | “+++” (≥50 = +++)
16 | 91 (IMQDFPAEIFL; listed as Homo sapiens) [compound 91] | “++++” (≥75% = ++++)
17 | 92 (YLIPFTGIVGL; listed as Homo sapiens) [compound 92] | “++” (≥20% = ++)
18 | 93 (LLQAIKLYL; listed as Homo sapiens) [compound 93] | “++” (≥20% = ++)
19 | 94 (YLIDIKTIAI; listed as Homo sapiens) [compound 94] | “++” (≥20% = ++)
20 | 95 (SVIPQIQKV; listed as Homo sapiens) [compound 95] | “+++” (≥50 = +++)
21 | 96 (YIFTDNPAAV; listed as Homo sapiens) [compound 96] | “+++” (≥50 = +++)
22 | 97 (SLINGSFLV; listed as Homo sapiens) [compound 97] | “+++” (≥50 = +++)
23 | 98 (LIIDQADIYL; listed as Homo sapiens) [compound 98] | “+++” (≥50 = +++)
24 | 99 (ALVSKGLATV; listed as Homo sapiens) [compound 99] | “++” (≥20% = ++)
25 | 100 (YLLSTNAQL; listed as Homo sapiens) [compound 100] | “++++” (≥75% = ++++)
26 | 101 (ILVGGGALATV; listed as Homo sapiens) [compound 101] | “+++” (≥50 = +++)
27 | 102 (YLFESEGLVL; listed as Homo sapiens) [compound 102] | “+++” (≥50 = +++)
28 | 103 (TLAEEVVAL; listed as Homo sapiens) [compound 103] | “+++” (≥50 = +++)
